This is an account of results in PMC9637899.

B1: activated C1s–CCP1–CCP2–SP [human] / ElpB_(182–378) [B. burgdorferi] (parent)
chain 1: MPCPKEDTPNSVWEPAKAKYVFRDVVQITCLDGFEVVEGRVGATSFYSTCQSNGKWSNSKLKCQPVDCGIPESIENGKVEDPESTLFGSVIRYTCEEPYYYMENGGGGEYHCAGNGSWVNEVLGPELPKCVPVCGVPREPFEEKQRIIGGSDADIKNFPWQVFFDNPWAGGALINEYWVLTAAHVVEGNREPTMYVGSTSVQTSRLAKSKMLTPEHVFIHPGWKLLEVPEGRTNFDNDIALVRLKDPVKMGPTVSPICLPGTSSDYNLMDGDLGLISGWGRTEKRDRAVRLKAARLPVAPLRKCKEVKVEKPTADAEAYVFTPNMICAGGEKGMDSCKGDSGGAFAVQDPNDKTKFYAAGLVSWGPQCGTYGLYTRVKNYVDWIMKTMQENSTPRED
chain 2: QERKAKAEKEAKEKAERQKQEEQQKRKAEKEREEQRKEAEKRQVDNEIRTLTGKIDEINRNIDVIKEQTSVGAQGVIDRITGPVYDDFTDGNKAIYKTWGDLEDDNDEGLGKLLKELSDTRHNLRTKLNEGNKAYIIDTRSTEPQLKENVSVSEIKSDLDELKSKLEEVKEYLEDKDNFEEIKEYVAGSEDNYDEED

Variants of B1 are the subject of the experiment. Put plainly: SPR. The following applies: with ElpB_(182–378) [B. burgdorferi]; steady-state response at the highest analyte concentration plotted (about 5e-7 M on the x axis); ElpB182-378 immobilized, C1s construct injected; parent: 79; read off a plot.
On to chain 1 MPCPKEDTPNSVWEPAKAKYVFRDVVQITCLDGFEVVEGRVGATSFYSTCQSNGKWSNSKLKCQPVDCGIPESIENGKVEDPESTLFGSVIRYTCEEPYYYMENGGGGEYHCAGNGSWVNEVLGPELPKCVPVCGVPREPFEEKQRIIGGSDADIKNFPWQVFFDNPWAGGALINEYWVLTAAHVVEGNREPTMYVGSTSVQTSRLAKSKMLTPEHVFIHPGWKLLEVPEGRTNFDNDIALVRLKDPVKMGPTVSPICLPGTSSDYNLMDGDLGLISGWGRTEAADRAVALAAARLPVAPLRKCKEVKVEKPTADAEAYVFTPNMICAGGEKGMDSCKGDSGGAFAVQDPNDKTKFYAAGLVSWGPQCGTYGLYTRVKNYVDWIMKTMQENSTPRED [chain 1 K284A R285A R290A K292A], for which the response was 7 RU. In the case of chain 1 MPCPKEDTPNSVWEPAKAKYVFRDVVQITCLDGFAVVEGRVGATSFYSTCQSNGKWSNSKLKCQPVACGIPESIENGKVEDPESTLFGSVIRYTCEEPYYYMENGGGGEYHCAGNGSWVNEVLGPELPKCVPVCGVPREPFEEKQRIIGGSDADIKNFPWQVFFDNPWAGGALINEYWVLTAAHVVEGNREPTMYVGSTSVQTSRLAKSKMLTPEHVFIHPGWKLLEVPEGRTNFDNDIALVRLKDPVKMGPTVSPICLPGTSSDYNLMDGDLGLISGWGRTEAADRAVALAAARLPVAPLRKCKEVKVEKPTADAEAYVFTPNMICAGGEKGMDSCKGDSGGAFAVQDPNDKTKFYAAGLVSWGPQCGTYGLYTRVKNYVDWIMKTMQENSTPRED [chain 1 E35A D67A K284A R285A R290A K292A], the response is 0 RU.
